According to publication PMC9352680, “A comprehensive thermodynamic model for RNA binding by the Saccharomyces cerevisiae Pumilio protein PUF4”:

Molecular target: T1, PUF4 RNA-binding domain (Saccharomyces cerevisiae, UniProt P25339 537-888)
T1 sequence: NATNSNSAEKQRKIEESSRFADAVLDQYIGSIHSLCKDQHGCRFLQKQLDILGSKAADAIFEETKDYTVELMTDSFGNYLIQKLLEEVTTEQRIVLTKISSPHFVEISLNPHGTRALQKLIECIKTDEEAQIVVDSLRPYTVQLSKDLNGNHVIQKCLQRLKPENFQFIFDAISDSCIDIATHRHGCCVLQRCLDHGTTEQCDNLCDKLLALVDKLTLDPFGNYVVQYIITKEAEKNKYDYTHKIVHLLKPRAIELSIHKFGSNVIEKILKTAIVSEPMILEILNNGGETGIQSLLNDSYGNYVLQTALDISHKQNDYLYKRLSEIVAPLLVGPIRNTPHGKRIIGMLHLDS
Assay: Mg; RNA-MaP; 20 mM Na-HEPES pH 7.4, 30 mM KOAc, 0.75 mM MgCl2, 0.1% Tween-20, 5% glycerol, 0.1 mg/mL BSA, 2 mM DTT; 25 C; 0.0125-409.6 nM protein
Details: tags: N-His6-TEV cleaved; C-SNAP kept, Cy3B-labelled; label: tethered on chip by stalled RNA polymerase

Binder | Kd [nM]
UCUCUUUGUGUAUCUCUCUU (ssRNA) [Ib_S1_P3E.1_K3.1_C3.1_H3.1_[A4G]_A3.1_F3.1_[A8C]_T3.1] | 63.7
UCUCUUUGUAACAAUUCUCUU (ssRNA) [Ic_S1_P4E.1_K4.1_C4.1_H4.1_A4.1_[T5A]_[A6C]_[T7A]_F4.1_[T8A]_[A9T]_T4.1] | 102
UCUCUUUGUAACUGAUCUCUU (ssRNA) [Ic_S1_P4E.1_K4.1_C4.1_H4.1_A4.1_[T5A]_[A6C]_F4.1_[T8G]_T4.1] | 674
UCUCUUUGUAACAAAUCUCUU (ssRNA) [Ic_S1_P4E.1_K4.1_C4.1_H4.1_A4.1_[T5A]_[A6C]_[T7A]_F4.1_[T8A]_T4.1] | 111
UCUCUUUGUAAUGUAUCUCUU (ssRNA) [Ic_S1_P4E.1_K4.1_C4.1_H4.1_A4.1_[T5A]_[A6T]_[T7G]_F4.1_T4.1] | 11.2
UCUCUUUGUAACUUGUCUCUU (ssRNA) [Ic_S1_P4E.1_K4.1_C4.1_H4.1_A4.1_[T5A]_[A6C]_F4.1_[A9G]_T4.1] | 62.5
UCUCUUUGUAACUAAUCUCUU (ssRNA) [Ic_S1_P4E.1_K4.1_C4.1_H4.1_A4.1_[T5A]_[A6C]_F4.1_[T8A]_T4.1] | 173
UCUCUUUGUAACACAUCUCUU (ssRNA) [Ic_S1_P4E.1_K4.1_C4.1_H4.1_A4.1_[T5A]_[A6C]_[T7A]_F4.1_[T8C]_T4.1] | 209
UCUCUUUGUAACUGCUCUCUU (ssRNA) [Ic_S1_P4E.1_K4.1_C4.1_H4.1_A4.1_[T5A]_[A6C]_F4.1_[T8G]_[A9C]_T4.1] | 704
UCUCUUUGUAAUCAUUCUCUU (ssRNA) [Ic_S1_P4E.1_K4.1_C4.1_H4.1_A4.1_[T5A]_[A6T]_[T7C]_F4.1_[T8A]_[A9T]_T4.1] | 413
UCUCUUUGUAAUCGCUCUCUU (ssRNA) [Ic_S1_P4E.1_K4.1_C4.1_H4.1_A4.1_[T5A]_[A6T]_[T7C]_F4.1_[T8G]_[A9C]_T4.1] | 1820
UCUCUUUGUAACUGUUCUCUU (ssRNA) [Ic_S1_P4E.1_K4.1_C4.1_H4.1_A4.1_[T5A]_[A6C]_F4.1_[T8G]_[A9T]_T4.1] | 360
UCUCUUUGUAAUCUGUCUCUU (ssRNA) [Ic_S1_P4E.1_K4.1_C4.1_H4.1_A4.1_[T5A]_[A6T]_[T7C]_F4.1_[A9G]_T4.1] | 76.5
UCUCUUUGUAAUGGUUCUCUU (ssRNA) [Ic_S1_P4E.1_K4.1_C4.1_H4.1_A4.1_[T5A]_[A6T]_[T7G]_F4.1_[T8G]_[A9T]_T4.1] | 764
UCUCUUUGUAACCCCUCUCUU (ssRNA) [Ic_S1_P4E.1_K4.1_C4.1_H4.1_A4.1_[T5A]_[A6C]_[T7C]_F4.1_[T8C]_[A9C]_T4.1] | 1700
UCUCUUUGCAUAUCUCUCUU (ssRNA) [Ib_S1_P3E.1_K3.1_C3.1_H3.1_[T3C]_A3.1_F3.1_[A8C]_T3.1] | > 2300
UCUCUUUGUAACUAGUCUCUU (ssRNA) [Ic_S1_P4E.1_K4.1_C4.1_H4.1_A4.1_[T5A]_[A6C]_F4.1_[T8A]_[A9G]_T4.1] | 104
UCUCUUUGUAAUGUUUCUCUU (ssRNA) [Ic_S1_P4E.1_K4.1_C4.1_H4.1_A4.1_[T5A]_[A6T]_[T7G]_F4.1_[A9T]_T4.1] | 95.2
UCUCUUUGUAACUACUCUCUU (ssRNA) [Ic_S1_P4E.1_K4.1_C4.1_H4.1_A4.1_[T5A]_[A6C]_F4.1_[T8A]_[A9C]_T4.1] | 422
UCUCUUUGUGUAUGUCUCUU (ssRNA) [Ib_S1_P3E.1_K3.1_C3.1_H3.1_[A4G]_A3.1_F3.1_[A8G]_T3.1] | 494

Binder | Kd [nM]
UCUCUUUGUAACUAUUCUCUU (ssRNA) [Ic_S1_P4E.1_K4.1_C4.1_H4.1_A4.1_[T5A]_[A6C]_F4.1_[T8A]_[A9T]_T4.1] | 93.1
UCUCUUUGUAACAUUUCUCUU (ssRNA) [Ic_S1_P4E.1_K4.1_C4.1_H4.1_A4.1_[T5A]_[A6C]_[T7A]_F4.1_[A9T]_T4.1] | 13.9
UCUCUUUGUAAUGGCUCUCUU (ssRNA) [Ic_S1_P4E.1_K4.1_C4.1_H4.1_A4.1_[T5A]_[A6T]_[T7G]_F4.1_[T8G]_[A9C]_T4.1] | 2140
UCUCUUUGUAACCGAUCUCUU (ssRNA) [Ic_S1_P4E.1_K4.1_C4.1_H4.1_A4.1_[T5A]_[A6C]_[T7C]_F4.1_[T8G]_T4.1] | > 2300
UCUCUUUGUAAUCCCUCUCUU (ssRNA) [Ic_S1_P4E.1_K4.1_C4.1_H4.1_A4.1_[T5A]_[A6T]_[T7C]_F4.1_[T8C]_[A9C]_T4.1] | 1070
UCUCUUUGUAACAGUUCUCUU (ssRNA) [Ic_S1_P4E.1_K4.1_C4.1_H4.1_A4.1_[T5A]_[A6C]_[T7A]_F4.1_[T8G]_[A9T]_T4.1] | 362
UCUCUUUGUAACCUGUCUCUU (ssRNA) [Ic_S1_P4E.1_K4.1_C4.1_H4.1_A4.1_[T5A]_[A6C]_[T7C]_F4.1_[A9G]_T4.1] | 61
UCUCUUUGUAACUGGUCUCUU (ssRNA) [Ic_S1_P4E.1_K4.1_C4.1_H4.1_A4.1_[T5A]_[A6C]_F4.1_[T8G]_[A9G]_T4.1] | 937
UCUCUUUGUAACAAGUCUCUU (ssRNA) [Ic_S1_P4E.1_K4.1_C4.1_H4.1_A4.1_[T5A]_[A6C]_[T7A]_F4.1_[T8A]_[A9G]_T4.1] | 1670
UCUCUUUGUAAUACUUCUCUU (ssRNA) [Ic_S1_P4E.1_K4.1_C4.1_H4.1_A4.1_[T5A]_[A6T]_[T7A]_F4.1_[T8C]_[A9T]_T4.1] | 603
UCUCUUUGUAACUCGUCUCUU (ssRNA) [Ic_S1_P4E.1_K4.1_C4.1_H4.1_A4.1_[T5A]_[A6C]_F4.1_[T8C]_[A9G]_T4.1] | 726
UCUCUUUGUAACGUUUCUCUU (ssRNA) [Ic_S1_P4E.1_K4.1_C4.1_H4.1_A4.1_[T5A]_[A6C]_[T7G]_F4.1_[A9T]_T4.1] | 314
UCUCUUUGUAACCUCUCUCUU (ssRNA) [Ic_S1_P4E.1_K4.1_C4.1_H4.1_A4.1_[T5A]_[A6C]_[T7C]_F4.1_[A9C]_T4.1] | 90
UCUCUUUGUAAUGUGUCUCUU (ssRNA) [Ic_S1_P4E.1_K4.1_C4.1_H4.1_A4.1_[T5A]_[A6T]_[T7G]_F4.1_[A9G]_T4.1] | 105
UCUCUUUGUAACAUAUCUCUU (ssRNA) [Ic_S1_P4E.1_K4.1_C4.1_H4.1_A4.1_[T5A]_[A6C]_[T7A]_F4.1_T4.1] | 1.55
UCUCUUUGUAAUCUUUCUCUU (ssRNA) [Ic_S1_P4E.1_K4.1_C4.1_H4.1_A4.1_[T5A]_[A6T]_[T7C]_F4.1_[A9T]_T4.1] | 56.3
UCUCUUUGUAAUCUCUCUCUU (ssRNA) [Ic_S1_P4E.1_K4.1_C4.1_H4.1_A4.1_[T5A]_[A6T]_[T7C]_F4.1_[A9C]_T4.1] | 74.6
UCUCUUUGUAACAGCUCUCUU (ssRNA) [Ic_S1_P4E.1_K4.1_C4.1_H4.1_A4.1_[T5A]_[A6C]_[T7A]_F4.1_[T8G]_[A9C]_T4.1] | 1150
UCUCUUUGUUUAUGUCUCUU (ssRNA) [Ib_S1_P3E.1_K3.1_C3.1_H3.1_[A4T]_A3.1_F3.1_[A8G]_T3.1] | 1460
UCUCUUUGUAACAACUCUCUU (ssRNA) [Ic_S1_P4E.1_K4.1_C4.1_H4.1_A4.1_[T5A]_[A6C]_[T7A]_F4.1_[T8A]_[A9C]_T4.1] | 580

Binder | Kd [nM]
UCUCUUUGUAAUCCUUCUCUU (ssRNA) [Ic_S1_P4E.1_K4.1_C4.1_H4.1_A4.1_[T5A]_[A6T]_[T7C]_F4.1_[T8C]_[A9T]_T4.1] | 484
UCUCUUUGUAAUGCAUCUCUU (ssRNA) [Ic_S1_P4E.1_K4.1_C4.1_H4.1_A4.1_[T5A]_[A6T]_[T7G]_F4.1_[T8C]_T4.1] | 642
UCUCUUUGUAAUACCUCUCUU (ssRNA) [Ic_S1_P4E.1_K4.1_C4.1_H4.1_A4.1_[T5A]_[A6T]_[T7A]_F4.1_[T8C]_[A9C]_T4.1] | 713
UCUCUUUGUAAUGUCUCUCUU (ssRNA) [Ic_S1_P4E.1_K4.1_C4.1_H4.1_A4.1_[T5A]_[A6T]_[T7G]_F4.1_[A9C]_T4.1] | 476
UCUCUUUGUAUCUAUCUCUU (ssRNA) [Ic_S1_P3E.1_K3.1_C3.1_H3.1_A3.1_[A6C]_F3.1_T3.1] | 48.6
UCUCUUUGUAACUUUUCUCUU (ssRNA) [Ic_S1_P4E.1_K4.1_C4.1_H4.1_A4.1_[T5A]_[A6C]_F4.1_[A9T]_T4.1] | 58.3
UCUCUUUGUAACCAUUCUCUU (ssRNA) [Ic_S1_P4E.1_K4.1_C4.1_H4.1_A4.1_[T5A]_[A6C]_[T7C]_F4.1_[T8A]_[A9T]_T4.1] | 548
UCUCUUUGUAACAUCUCUCUU (ssRNA) [Ic_S1_P4E.1_K4.1_C4.1_H4.1_A4.1_[T5A]_[A6C]_[T7A]_F4.1_[A9C]_T4.1] | 24.5
UCUCUUUGUAACCAAUCUCUU (ssRNA) [Ic_S1_P4E.1_K4.1_C4.1_H4.1_A4.1_[T5A]_[A6C]_[T7C]_F4.1_[T8A]_T4.1] | 863
UCUCUUUGUAACUUCUCUCUU (ssRNA) [Ic_S1_P4E.1_K4.1_C4.1_H4.1_A4.1_[T5A]_[A6C]_F4.1_[A9C]_T4.1] | 113
UCUCUUUGUAAUAGCUCUCUU (ssRNA) [Ic_S1_P4E.1_K4.1_C4.1_H4.1_A4.1_[T5A]_[A6T]_[T7A]_F4.1_[T8G]_[A9C]_T4.1] | 941
UCUCUUUGUAACGUAUCUCUU (ssRNA) [Ic_S1_P4E.1_K4.1_C4.1_H4.1_A4.1_[T5A]_[A6C]_[T7G]_F4.1_T4.1] | 17.3
UCUCUUUGCAUAUGUCUCUU (ssRNA) [Ib_S1_P3E.1_K3.1_C3.1_H3.1_[T3C]_A3.1_F3.1_[A8G]_T3.1] | > 2300
UCUCUUUGUAAUCUAUCUCUU (ssRNA) [Ic_S1_P4E.1_K4.1_C4.1_H4.1_A4.1_[T5A]_[A6T]_[T7C]_F4.1_T4.1] | 8.88
UCUCUUUGUAACCCUUCUCUU (ssRNA) [Ic_S1_P4E.1_K4.1_C4.1_H4.1_A4.1_[T5A]_[A6C]_[T7C]_F4.1_[T8C]_[A9T]_T4.1] | 727
UCUCUUUGUAACCAGUCUCUU (ssRNA) [Ic_S1_P4E.1_K4.1_C4.1_H4.1_A4.1_[T5A]_[A6C]_[T7C]_F4.1_[T8A]_[A9G]_T4.1] | > 2300
UCUCUUUGUAACAUGUCUCUU (ssRNA) [Ic_S1_P4E.1_K4.1_C4.1_H4.1_A4.1_[T5A]_[A6C]_[T7A]_F4.1_[A9G]_T4.1] | 12
UCUCUUUGUAACUCAUCUCUU (ssRNA) [Ic_S1_P4E.1_K4.1_C4.1_H4.1_A4.1_[T5A]_[A6C]_F4.1_[T8C]_T4.1] | 374
UCUCUUUGUAAUCGAUCUCUU (ssRNA) [Ic_S1_P4E.1_K4.1_C4.1_H4.1_A4.1_[T5A]_[A6T]_[T7C]_F4.1_[T8G]_T4.1] | 1160
